Laboratory results published in PMC6181354, “Domain architecture of BAF250a reveals the ARID and ARM-repeat domains with implication in function and assembly of the BAF remodeling complex”.

Key:
BAF250a ARID V1067G = BAF250a ARID V1067G (UniProt O14497 968-1143, V1067G); assay: ITC; 25 C; dH -0.69 kcal/mol; n 1.04; ITC: 50 mM NaH2PO4 pH 6, 0.025 mM EDTA, 25 C; 20 uM DNA in cell titrated with 200 uM protein; conditions: protein: recombinant; tags: N-terminal 6xHis (pET28a); blunt; self-complementary palindrome, 2 copies; snap cooled on ice after heating
BAF250a ARID V1067G, sequence (O14497 968-1143 V1067G): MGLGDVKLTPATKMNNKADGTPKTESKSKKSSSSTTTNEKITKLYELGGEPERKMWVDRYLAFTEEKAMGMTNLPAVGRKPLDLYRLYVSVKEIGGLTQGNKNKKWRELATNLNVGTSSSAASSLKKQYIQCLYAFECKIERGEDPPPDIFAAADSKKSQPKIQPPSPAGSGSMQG

BAF250a ARID WT = BAF250a ARID WT (UniProt O14497 968-1143); assay: ITC; 25 C; dH 1.51 kcal/mol; n 1.03; ITC: 50 mM NaH2PO4 pH 6, 0.025 mM EDTA, 25 C; 20 uM DNA in cell titrated with 200 uM protein; conditions: protein: recombinant; tags: N-terminal 6xHis (pET28a); blunt; self-complementary palindrome, 2 copies; snap cooled on ice after heating
BAF250a ARID WT, sequence (O14497 968-1143): as the sequence (O14497 968-1143 V1067G) above, with G100V counted along it

B1: DD12 dsDNA (Dickerson dodecamer) (dsDNA)
DNA 1: CGCGAATTCGCG
DNA 2: CGCGAATTCGCG
Which results are given for B1?
Kd (BAF250a ARID V1067G): 694 ± 331 nM; Kd (BAF250a ARID WT): 71.9 ± 37.7 nM
